Data reported in article PMC6754785 (Nature microbiology, 2019).

Target: T1, NXF1 (residues 117–619) (human, UniProt Q9UBU9 117-619)
T1 sequence: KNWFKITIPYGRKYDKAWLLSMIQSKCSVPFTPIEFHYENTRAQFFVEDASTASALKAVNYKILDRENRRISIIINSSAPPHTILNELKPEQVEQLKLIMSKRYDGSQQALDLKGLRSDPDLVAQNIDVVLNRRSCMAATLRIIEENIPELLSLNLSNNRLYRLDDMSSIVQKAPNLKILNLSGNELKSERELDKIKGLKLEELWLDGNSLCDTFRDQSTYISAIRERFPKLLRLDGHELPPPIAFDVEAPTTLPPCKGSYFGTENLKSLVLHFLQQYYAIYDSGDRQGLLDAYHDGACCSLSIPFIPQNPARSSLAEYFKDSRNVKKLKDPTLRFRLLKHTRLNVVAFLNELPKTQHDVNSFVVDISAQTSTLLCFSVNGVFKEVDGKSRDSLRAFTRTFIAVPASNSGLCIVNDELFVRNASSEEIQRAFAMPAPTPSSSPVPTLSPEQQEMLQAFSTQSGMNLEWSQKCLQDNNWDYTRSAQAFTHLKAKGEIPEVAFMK
Assay: crystal structure

B1: NXT1 (residues 1–140) (natural protein)
chain: MASVDFKTYVDQACRAAEEFVNVYYTTMDKRRRLLSRLYMGTATLVWNGNAVSGQESLSEFFEMLPSSEFQISVVDCQPVHDEATPSQTTVLVVICGSVKFEGNKQRDFNQNFILTAQASPSNTVWKIASDCFRFQDWAS
B1: binds.
